Results on 2 molecules are retold here after patent publication US20160200782A1 (MOERAE MATRIX, published 2016).

Among the targets are MELK(h) (human, UniProt Q14680 1-340, limits assumed); Arg(h) (human, UniProt P42684 38-1182, limits assumed); MINK(h) (human, UniProt Q8N4C8 1-320, limits assumed); mTOR(h) (human, UniProt P42345 1362-2549); PAK3(h) (human, UniProt O75914 1-559, limits assumed); RIPK2(h) (human, UniProt O43353 1-299, limits assumed); SIK(h) (human, UniProt P57059 1-783, limits assumed); SRPK1(h) (human, UniProt Q96SB4 1-655, limits assumed); WNK2(h) (human, UniProt Q9Y3S1 166-489, limits assumed); CaMKIIβ(h) (human, UniProt Q13554 1-666, limits assumed); CLK3(h) (human, UniProt P49761 1-490, limits assumed); DAPK1(h) (human, UniProt P53355 1-289, limits assumed).

Common to all, as to experiment: cell-based or functional assay
Another assay concerns the target T1, NEK3(h) (human, UniProt P51956 1-506, limits assumed).
T1 sequence (looked up): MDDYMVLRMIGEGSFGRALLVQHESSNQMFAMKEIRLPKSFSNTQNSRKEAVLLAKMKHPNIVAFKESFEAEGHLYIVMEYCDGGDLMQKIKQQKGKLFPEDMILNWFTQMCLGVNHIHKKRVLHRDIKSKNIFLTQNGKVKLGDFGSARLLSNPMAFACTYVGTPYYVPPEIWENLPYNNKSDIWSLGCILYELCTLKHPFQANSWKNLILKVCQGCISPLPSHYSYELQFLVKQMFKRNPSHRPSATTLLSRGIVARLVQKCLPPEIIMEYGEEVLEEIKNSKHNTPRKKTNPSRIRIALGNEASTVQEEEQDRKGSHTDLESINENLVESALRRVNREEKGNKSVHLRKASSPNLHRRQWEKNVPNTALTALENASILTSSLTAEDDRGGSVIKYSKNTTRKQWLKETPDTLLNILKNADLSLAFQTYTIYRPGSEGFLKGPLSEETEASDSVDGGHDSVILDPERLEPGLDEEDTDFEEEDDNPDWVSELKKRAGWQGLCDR

A further assay deals with T2, PDK1(h) (human, UniProt O15530 1-556, limits assumed).
T2 sequence (looked up): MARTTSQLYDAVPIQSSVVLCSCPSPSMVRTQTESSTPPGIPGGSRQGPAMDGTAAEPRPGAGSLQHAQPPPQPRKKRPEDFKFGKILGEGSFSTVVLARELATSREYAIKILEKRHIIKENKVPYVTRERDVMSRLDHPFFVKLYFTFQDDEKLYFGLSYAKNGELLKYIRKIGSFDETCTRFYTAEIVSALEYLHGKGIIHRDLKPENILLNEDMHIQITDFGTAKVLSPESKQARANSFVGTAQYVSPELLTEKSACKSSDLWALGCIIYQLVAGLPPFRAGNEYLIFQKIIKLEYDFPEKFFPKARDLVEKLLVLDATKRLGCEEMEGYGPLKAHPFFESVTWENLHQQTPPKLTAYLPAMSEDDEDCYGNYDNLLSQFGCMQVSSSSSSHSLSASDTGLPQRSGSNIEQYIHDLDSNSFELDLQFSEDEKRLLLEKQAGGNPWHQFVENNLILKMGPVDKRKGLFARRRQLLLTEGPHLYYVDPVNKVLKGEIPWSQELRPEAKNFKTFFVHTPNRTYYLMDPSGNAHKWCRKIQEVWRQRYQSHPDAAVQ

The target in a further assay is T3, Rse(h) (human, UniProt Q06418 451-890, limits assumed).
T3 sequence (looked up): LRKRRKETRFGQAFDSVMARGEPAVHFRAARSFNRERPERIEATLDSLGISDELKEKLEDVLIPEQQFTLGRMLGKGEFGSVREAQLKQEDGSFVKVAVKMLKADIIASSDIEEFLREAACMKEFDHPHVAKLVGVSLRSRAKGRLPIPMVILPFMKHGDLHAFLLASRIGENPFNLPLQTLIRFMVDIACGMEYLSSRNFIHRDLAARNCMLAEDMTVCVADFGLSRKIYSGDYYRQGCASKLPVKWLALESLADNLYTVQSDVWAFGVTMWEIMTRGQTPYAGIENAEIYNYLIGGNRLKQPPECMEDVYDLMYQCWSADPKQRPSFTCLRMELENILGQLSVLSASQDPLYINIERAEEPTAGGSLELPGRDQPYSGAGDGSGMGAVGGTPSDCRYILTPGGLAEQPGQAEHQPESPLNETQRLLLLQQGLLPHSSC

A further assay deals with T4, EphA5(h) (human, UniProt P54756 595-1037, limits assumed).
T4 sequence (looked up): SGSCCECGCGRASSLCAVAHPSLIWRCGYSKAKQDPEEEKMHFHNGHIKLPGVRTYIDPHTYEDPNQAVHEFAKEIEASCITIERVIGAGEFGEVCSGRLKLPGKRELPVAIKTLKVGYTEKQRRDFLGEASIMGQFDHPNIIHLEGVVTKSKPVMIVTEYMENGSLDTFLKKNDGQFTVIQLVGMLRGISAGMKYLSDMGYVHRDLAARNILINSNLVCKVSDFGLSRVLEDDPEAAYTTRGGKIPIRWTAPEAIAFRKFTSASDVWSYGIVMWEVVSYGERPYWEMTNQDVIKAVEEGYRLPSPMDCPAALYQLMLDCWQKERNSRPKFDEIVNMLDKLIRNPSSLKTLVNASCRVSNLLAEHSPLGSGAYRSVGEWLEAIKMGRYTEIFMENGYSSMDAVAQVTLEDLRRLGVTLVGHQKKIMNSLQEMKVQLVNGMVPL
Note: test concentration or dose not given here.

Sequence of mTOR(h) (P42345 1362-2549 limits assumed): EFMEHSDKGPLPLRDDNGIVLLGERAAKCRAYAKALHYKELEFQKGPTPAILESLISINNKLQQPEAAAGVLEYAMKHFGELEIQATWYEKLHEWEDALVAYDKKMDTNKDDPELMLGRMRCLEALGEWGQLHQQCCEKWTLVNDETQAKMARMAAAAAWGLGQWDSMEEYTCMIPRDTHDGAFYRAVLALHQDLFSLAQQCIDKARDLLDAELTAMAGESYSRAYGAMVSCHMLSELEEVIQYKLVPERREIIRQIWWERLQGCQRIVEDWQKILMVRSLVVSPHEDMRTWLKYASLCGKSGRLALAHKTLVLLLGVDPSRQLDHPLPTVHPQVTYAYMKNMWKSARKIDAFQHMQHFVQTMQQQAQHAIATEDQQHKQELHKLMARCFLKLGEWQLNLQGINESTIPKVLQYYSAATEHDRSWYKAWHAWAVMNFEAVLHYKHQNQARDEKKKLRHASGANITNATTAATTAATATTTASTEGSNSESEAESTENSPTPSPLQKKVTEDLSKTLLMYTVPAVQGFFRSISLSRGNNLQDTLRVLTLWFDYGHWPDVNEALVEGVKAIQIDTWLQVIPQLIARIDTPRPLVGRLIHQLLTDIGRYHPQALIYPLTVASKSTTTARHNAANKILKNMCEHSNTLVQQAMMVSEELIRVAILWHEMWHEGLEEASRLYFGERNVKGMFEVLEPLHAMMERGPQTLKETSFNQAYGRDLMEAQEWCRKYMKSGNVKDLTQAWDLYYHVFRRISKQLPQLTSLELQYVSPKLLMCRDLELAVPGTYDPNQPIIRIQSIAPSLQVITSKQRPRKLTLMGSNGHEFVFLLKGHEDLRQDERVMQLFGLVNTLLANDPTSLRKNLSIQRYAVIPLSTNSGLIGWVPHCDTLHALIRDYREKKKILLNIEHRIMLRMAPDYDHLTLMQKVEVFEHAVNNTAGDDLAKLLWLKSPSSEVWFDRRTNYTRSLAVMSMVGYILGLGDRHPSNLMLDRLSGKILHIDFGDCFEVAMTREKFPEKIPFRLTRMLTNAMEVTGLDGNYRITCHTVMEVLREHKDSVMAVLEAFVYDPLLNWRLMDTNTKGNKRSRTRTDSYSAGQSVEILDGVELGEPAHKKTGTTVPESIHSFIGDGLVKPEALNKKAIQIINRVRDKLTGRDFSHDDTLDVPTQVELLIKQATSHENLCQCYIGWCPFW
Sequence of DAPK1(h) (P53355 1-289 limits assumed): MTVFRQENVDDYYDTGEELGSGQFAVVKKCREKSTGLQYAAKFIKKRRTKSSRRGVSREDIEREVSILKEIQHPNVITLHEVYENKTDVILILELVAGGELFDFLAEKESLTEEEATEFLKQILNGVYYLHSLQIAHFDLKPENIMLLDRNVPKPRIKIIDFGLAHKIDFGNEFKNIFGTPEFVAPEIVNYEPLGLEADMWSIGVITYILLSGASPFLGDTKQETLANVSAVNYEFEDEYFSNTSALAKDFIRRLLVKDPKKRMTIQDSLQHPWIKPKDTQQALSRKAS
Sequence of SRPK1(h) (Q96SB4 whole entry): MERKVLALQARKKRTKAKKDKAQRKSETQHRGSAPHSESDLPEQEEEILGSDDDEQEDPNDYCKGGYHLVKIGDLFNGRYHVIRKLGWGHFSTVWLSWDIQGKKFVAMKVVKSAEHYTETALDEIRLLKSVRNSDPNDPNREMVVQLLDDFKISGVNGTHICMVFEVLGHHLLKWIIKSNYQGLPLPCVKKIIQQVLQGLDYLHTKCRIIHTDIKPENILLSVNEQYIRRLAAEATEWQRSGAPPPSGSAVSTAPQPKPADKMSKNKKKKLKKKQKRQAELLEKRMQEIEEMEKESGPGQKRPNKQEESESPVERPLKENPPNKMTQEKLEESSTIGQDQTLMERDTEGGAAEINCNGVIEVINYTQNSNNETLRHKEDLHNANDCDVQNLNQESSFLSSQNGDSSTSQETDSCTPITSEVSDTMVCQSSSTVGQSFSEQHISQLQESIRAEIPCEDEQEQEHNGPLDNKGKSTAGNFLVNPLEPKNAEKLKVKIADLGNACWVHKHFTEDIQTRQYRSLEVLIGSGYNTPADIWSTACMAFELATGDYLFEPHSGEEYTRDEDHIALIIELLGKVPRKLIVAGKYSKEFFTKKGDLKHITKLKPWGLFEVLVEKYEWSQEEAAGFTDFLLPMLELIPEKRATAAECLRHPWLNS
Sequence of WNK2(h) (Q9Y3S1 166-489 limits assumed): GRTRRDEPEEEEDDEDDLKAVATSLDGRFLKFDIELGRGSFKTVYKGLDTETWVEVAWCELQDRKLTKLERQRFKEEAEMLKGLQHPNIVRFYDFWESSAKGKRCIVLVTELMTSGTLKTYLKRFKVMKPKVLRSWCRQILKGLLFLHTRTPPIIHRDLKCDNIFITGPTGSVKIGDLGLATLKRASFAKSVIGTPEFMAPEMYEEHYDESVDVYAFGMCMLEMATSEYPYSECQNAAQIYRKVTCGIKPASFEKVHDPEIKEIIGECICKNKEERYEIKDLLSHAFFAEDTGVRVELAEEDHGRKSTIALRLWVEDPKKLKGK
Sequence of MINK(h) (Q8N4C8 1-320 limits assumed): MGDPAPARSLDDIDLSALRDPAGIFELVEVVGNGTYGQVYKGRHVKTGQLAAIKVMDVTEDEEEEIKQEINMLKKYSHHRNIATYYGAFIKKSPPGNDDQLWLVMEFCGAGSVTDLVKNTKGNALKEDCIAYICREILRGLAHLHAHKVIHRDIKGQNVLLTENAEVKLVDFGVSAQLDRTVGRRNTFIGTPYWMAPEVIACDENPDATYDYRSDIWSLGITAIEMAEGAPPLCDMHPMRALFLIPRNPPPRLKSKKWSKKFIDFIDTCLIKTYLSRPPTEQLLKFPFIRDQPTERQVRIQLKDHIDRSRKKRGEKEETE
Sequence of RIPK2(h) (O43353 1-299 limits assumed): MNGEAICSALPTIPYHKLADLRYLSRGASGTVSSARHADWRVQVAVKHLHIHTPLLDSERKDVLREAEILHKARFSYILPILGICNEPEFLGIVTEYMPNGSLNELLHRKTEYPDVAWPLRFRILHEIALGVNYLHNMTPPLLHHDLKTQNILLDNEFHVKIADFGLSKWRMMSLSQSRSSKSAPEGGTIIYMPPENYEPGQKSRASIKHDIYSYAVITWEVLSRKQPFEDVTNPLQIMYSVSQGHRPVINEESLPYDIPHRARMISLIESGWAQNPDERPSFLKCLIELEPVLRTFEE
Sequence of MELK(h) (Q14680 1-340 limits assumed): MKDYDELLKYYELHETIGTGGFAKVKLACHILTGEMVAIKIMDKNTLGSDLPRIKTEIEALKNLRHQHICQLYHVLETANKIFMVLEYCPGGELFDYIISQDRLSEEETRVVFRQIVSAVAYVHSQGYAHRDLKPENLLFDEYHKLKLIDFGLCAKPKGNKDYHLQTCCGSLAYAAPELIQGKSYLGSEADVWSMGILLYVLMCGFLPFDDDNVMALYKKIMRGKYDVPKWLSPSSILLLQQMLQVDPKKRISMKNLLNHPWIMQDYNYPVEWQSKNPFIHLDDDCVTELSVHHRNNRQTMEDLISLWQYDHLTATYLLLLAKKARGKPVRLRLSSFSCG
Sequence of CLK3(h) (P49761 whole entry): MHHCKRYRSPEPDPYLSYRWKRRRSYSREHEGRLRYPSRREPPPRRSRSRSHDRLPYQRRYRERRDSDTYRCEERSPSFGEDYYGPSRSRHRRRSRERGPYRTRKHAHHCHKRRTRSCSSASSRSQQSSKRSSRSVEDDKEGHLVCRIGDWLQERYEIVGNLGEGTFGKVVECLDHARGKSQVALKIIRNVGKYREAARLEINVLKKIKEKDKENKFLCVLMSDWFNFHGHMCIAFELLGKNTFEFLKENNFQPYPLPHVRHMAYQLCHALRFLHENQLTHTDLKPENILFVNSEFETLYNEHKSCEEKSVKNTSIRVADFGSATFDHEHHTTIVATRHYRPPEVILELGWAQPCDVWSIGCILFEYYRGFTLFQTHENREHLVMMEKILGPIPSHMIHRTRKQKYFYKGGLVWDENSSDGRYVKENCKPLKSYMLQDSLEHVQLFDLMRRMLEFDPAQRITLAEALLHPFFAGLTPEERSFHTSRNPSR
Sequence of PAK3(h) (O75914 whole entry): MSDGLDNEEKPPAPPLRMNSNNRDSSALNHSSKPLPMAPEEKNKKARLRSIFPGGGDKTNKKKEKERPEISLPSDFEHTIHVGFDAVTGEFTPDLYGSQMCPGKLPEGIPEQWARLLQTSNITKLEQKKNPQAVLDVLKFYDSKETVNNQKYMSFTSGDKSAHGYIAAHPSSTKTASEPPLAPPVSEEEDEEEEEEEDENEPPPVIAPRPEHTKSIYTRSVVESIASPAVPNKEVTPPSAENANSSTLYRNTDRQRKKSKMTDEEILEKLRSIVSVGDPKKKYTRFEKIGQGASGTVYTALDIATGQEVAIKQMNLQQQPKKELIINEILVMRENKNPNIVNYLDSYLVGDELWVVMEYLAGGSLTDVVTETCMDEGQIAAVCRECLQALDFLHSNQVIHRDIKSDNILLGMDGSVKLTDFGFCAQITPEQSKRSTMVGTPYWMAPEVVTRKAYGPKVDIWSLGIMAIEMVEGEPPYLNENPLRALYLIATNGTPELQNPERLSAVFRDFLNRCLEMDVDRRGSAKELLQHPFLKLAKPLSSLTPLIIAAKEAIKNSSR

In the case of FAKLAARLYRKALARQLGVAA [MMI-0300], the “% activity” value with MELK(h) was 16%; with Arg(h) it was 72%; with MINK(h), 48%; in the assay with mTOR(h), 91%; with NEK3(h) it was 92%; with PAK3(h) it was 140%. For the same molecule, the “% activity” value in the assay with PDK1(h) was 135%; with RIPK2(h) it was 97%; with Rse(h), 88%; in the assay with SIK(h) it was 66%; in the assay with SRPK1(h), 90%; with WNK2(h), 64%. Also, the “% activity” value in the assay with CaMKIIβ(h) was 2%; with CLK3(h), 61%; with DAPK1(h) it was 46%; with EphA5(h), 18%.

As to KAFAKLAARLYRKALARQLGVAA [MMI-0400], the “% activity” value was 17% in the assay with MELK(h); 84% with Arg(h); 52% with MINK(h); 93% with mTOR(h); 85% with NEK3(h); 121% in the assay with PAK3(h). Besides, the “% activity” value with PDK1(h) is 159%; with RIPK2(h), 98%; with Rse(h) it was 89%; in the assay with SIK(h) it was 68%; in the assay with SRPK1(h), 96%; with WNK2(h), 54%. For the same molecule, the “% activity” value came out at 11% in the assay with CaMKIIβ(h), 84% in the assay with CLK3(h), 36% with DAPK1(h) and 24% with EphA5(h).
